The test deals with Mcm2/4/6/7 complex (wild type) (mouse, UniProt P97310 1-904; P49717 1-862; P97311 1-821; Q61881 1-719). Description: co-sedimentation.
Chain of Mcm2/4/6/7 complex (wild type) (P97310 whole entry, chain 1 of 4): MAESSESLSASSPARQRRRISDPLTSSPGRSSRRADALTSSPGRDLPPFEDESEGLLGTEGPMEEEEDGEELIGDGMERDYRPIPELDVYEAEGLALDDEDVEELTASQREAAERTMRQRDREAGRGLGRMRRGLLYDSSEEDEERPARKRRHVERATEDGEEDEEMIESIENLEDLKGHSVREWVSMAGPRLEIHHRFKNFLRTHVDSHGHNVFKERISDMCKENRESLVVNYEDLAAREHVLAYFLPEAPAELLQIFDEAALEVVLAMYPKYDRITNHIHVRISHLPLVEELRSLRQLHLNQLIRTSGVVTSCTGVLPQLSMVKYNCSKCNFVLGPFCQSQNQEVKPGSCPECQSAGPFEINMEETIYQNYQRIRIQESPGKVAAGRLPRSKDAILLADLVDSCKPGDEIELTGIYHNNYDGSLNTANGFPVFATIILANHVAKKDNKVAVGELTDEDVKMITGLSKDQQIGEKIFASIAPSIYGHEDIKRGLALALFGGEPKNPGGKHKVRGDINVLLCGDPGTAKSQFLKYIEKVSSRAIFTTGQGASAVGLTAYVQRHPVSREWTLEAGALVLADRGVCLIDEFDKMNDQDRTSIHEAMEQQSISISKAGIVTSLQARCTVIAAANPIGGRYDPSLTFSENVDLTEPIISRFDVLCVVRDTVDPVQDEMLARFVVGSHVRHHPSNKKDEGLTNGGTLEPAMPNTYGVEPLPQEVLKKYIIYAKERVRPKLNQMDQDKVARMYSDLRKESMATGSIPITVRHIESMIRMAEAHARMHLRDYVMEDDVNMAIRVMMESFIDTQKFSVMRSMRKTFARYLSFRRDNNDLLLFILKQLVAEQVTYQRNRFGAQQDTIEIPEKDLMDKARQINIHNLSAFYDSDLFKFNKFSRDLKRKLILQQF
Chain of Mcm2/4/6/7 complex (wild type) (P49717 whole entry, chain 2 of 4): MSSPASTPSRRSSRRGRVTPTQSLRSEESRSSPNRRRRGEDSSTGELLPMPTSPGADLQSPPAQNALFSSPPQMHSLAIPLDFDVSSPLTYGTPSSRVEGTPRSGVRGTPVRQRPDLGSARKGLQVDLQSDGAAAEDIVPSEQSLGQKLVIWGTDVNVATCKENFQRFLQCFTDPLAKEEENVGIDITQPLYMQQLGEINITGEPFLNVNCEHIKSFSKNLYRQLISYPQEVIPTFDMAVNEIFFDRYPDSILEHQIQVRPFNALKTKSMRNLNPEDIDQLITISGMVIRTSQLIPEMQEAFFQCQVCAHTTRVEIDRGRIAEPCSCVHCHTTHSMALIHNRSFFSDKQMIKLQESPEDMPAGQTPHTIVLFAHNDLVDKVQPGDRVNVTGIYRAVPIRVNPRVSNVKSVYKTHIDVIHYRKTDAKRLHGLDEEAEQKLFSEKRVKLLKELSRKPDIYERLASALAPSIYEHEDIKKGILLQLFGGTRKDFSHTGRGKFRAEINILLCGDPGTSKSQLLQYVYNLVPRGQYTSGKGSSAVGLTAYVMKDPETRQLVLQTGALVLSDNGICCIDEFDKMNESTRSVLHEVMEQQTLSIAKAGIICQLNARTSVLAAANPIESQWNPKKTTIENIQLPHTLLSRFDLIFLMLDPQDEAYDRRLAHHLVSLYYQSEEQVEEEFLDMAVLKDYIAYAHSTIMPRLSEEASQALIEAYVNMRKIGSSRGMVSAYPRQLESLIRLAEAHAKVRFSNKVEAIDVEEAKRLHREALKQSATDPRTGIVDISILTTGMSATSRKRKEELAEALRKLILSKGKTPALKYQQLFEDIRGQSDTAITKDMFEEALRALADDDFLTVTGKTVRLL
Chain of Mcm2/4/6/7 complex (wild type) (P97311 whole entry, chain 3 of 4): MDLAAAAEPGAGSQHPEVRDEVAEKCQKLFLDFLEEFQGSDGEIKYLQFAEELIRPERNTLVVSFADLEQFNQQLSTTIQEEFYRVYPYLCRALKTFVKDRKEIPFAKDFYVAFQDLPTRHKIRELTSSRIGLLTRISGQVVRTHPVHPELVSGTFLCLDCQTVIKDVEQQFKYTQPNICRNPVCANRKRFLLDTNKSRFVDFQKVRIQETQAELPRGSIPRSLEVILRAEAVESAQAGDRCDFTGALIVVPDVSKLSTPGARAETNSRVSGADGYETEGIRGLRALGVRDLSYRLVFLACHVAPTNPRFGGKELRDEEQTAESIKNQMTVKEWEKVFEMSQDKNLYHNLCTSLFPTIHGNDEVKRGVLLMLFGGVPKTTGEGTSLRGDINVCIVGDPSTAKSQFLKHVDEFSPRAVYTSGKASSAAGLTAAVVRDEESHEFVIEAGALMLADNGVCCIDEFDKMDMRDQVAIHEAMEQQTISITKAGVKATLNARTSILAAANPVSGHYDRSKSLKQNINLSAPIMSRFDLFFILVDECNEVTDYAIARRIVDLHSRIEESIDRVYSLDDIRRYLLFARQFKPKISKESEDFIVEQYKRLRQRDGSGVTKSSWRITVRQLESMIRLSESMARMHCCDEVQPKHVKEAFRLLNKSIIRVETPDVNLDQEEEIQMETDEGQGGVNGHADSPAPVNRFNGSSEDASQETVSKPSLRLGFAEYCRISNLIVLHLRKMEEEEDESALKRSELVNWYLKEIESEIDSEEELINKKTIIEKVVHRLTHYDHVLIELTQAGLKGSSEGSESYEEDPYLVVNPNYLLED
Chain of Mcm2/4/6/7 complex (wild type) (Q61881 whole entry, chain 4 of 4): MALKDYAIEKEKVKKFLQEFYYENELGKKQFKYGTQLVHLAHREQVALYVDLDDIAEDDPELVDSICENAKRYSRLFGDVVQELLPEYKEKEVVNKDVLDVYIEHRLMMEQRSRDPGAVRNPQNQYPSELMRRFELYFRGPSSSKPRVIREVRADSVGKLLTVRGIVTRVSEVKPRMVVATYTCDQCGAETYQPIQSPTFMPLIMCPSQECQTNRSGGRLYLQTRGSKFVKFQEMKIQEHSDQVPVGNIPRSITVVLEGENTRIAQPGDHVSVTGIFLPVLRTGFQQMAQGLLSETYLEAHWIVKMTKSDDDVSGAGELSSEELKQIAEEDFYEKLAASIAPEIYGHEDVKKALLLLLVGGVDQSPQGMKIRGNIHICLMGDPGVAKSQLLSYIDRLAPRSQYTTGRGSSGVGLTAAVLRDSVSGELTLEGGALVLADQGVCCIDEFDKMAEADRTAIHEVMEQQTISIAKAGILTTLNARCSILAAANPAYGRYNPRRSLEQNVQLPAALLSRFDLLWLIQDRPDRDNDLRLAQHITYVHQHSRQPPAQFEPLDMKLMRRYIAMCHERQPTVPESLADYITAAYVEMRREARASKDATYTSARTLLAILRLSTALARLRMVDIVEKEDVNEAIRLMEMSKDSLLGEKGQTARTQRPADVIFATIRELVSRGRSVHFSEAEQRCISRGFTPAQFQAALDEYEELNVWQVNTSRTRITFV

B1: Mcm3/5 complex (wild type) (complex, mouse)
chain 1: MAGTVVLDDVELREAQRDYLDFLDDEEDQGIYQNKVRELISDNQYRLIVSVNDLRRKNEKRANRLLNNAFEELVAFQRALKDFVASIDATYAKQYEEFYIGLEGSFGSKHVSPRTLTSCFLSCVVCVEGIVTKCSLVRPKVVRSVHYCPATKKTIERRYSDLTTLVAFPSSSVYPTKDEENNPLETEYGLSVYKDHQTITIQEMPEKAPAGQLPRSVDVILDDDLVDKVKPGDRIQVVGTYRCLPGKKGCYTSGTFRTVLIACNVKQMSKDIQPAFSADDIAKIKKFSKTRSKDVFEQLARSLAPSIHGHDYVKKAILCLLLGGVERELENGSHIRGDINILLIGDPSVAKSQLLRYVLCTAPRAIPTTGRGSSGVGLTAAVTTDQETGERRLEAGAMVLADRGVVCIDEFDKMSDMDRTAIHEVMEQGRVTIAKAGIHARLNARCSVLAAANPVYGRYDQYKTPMENIGLQDSLLSRFDLLFIMLDQMDPEQDREISDHVLRMHQYRAPGEQDGDALPLGSSVDILATDDPDFTQDDQQDTRIYEKHDSLLHGTKKKKEKMVSAAFMKKYIHVAKIIKPTLTQESAAYIAEEYSRLRSQDSMSSDTARTSPVTARTLETLIRLATAHAKARMSKTVDLQDAEEAVELVQYAYFKKVLEKEKKRKKASEDESDLEDEEEKSQEDTEQKRKRRKTHAKDGESYDPYDFSEAETQMPQVHTPKTDDSQEKTDDSQETQDSQKVELSEPRLKAFKAALLEVFQEAHEQSVGMLHLTESINRNREEPFSSEEIQACLSRMQDDNQVMVSEGIVFLI
chain 2: MSGFDDPGIFYSDSFGGDPGAEEGQARKSQLQRRFKEFLRQYRVGTDRTGFTFKYRDELKRHYNLGEYWIEVEMEDLASFDEELADHLHKQPAEHLQLLEEAAKEVADEVTRPRPAGDELLQDIQVMLKSDASPSSIRILKSDMMSHLVKIPGIIISASAVRAKATRISIQCRSCHNTLTNIAMRPGLEGYALPRKCNMDQAGRPKCPLDPYFIMPDKCKCVDFQTLKLQELPDAVPHGEMPRHMQLYCDRYLCDKVVPGNRVTIMGIYSIKKFGLNPSKGRDRVGVGIRSSYIRVLGIQVDTDGSGRSFAGSVSPQEEEEFRRLAALPNIYELISKSISPSIFGGMDMKKAIACLLFGGSRKRLPDGLTRRGDINLLMLGDPGTAKSQLLKFVEKCSPIGVYTSGKGSSAAGLTASVIRDPSSRNFIMEGGAMVLADGGVVCIDEFDKMREDDRVAIHEAMEQQTISIAKAGITTTLNSRCSVLAAANSVFGRWDETKGEDNIDFMPTILSRFDMIFIVKDEHNEERDMMLAKHVMTLHVSALTQTQAVEGEIDLAKMKKFIAYCRARCGPRLSAEAAEKLKNRYIIMRSGARQHERDSDRRSSIPITVRQLEAIVRIAEALSKMKLQPFATEADVEEALRLFQVSTLDAALSGNLSGVEGFTTQEDQEMLSRIEKQLKRRFAIGSQVSEHSIVQDFTKQKYPEHAIRKVLQLMLRRGEIQHRMQRKVLYRLK
For the molecule B1, the binding result is recorded as “binds”.

For the origin of these results see article PMC5499727 (Nucleic Acids Research, 2017).
